{"source": "patent US20020106772A1", "about": "(WASHINGTON STATE UNIVERSITY RESEARCH FOUNDATION, published 2002)", "binders": {"B1": {"name": "geranyl diphosphate synthase large subunit from peppermint (Mentha piperita), full-length preprotein encoded by the cDNA insert of pMp23.10, expressed from … (enzyme)", "chain": "MSALVNPVAKWPQTIGVKDVHGGRRRRSRSTLFQSHPLRTEMPFSLYFSSPLKAPATFSVSAVYTKEGSEIRDKDPAPSTSPAFDFDGYMLRKAKSVNKALEAAVQMKEPLKIHESMRYSLLAGGKRVRPMLCIAACELVGGDESTAMPAACAVEMIHTMSLMHDDLPCMDNDDLRRGKPTNHMAFGESVAVLAGDALLSFAFEHVAAATKGAPPERIVRVLGELAVSIGSEGLVAGQVVDVCSEGMAEVGLDHLEFIHHHKTAALLQGSVVLGAILGGGKEEEVAKLRKFANCIGLLFQVVDDILDVTKSSKELGKTAGKDLVADKTTYPKLIGVEKSKEFADRLNREAQEQLLHFHPHRAAPLIALANYIAYRDN", "notes": "also called Mp23.10 protein; pMp23.10 protein"}}, "target": "T1, geranyl diphosphate synthase small subunit from Mentha, full-length preprotein encoded by the cDNA insert of … (Mentha piperita (peppermint oil gland …))", "T1 construct": "also called Mp13.18 protein; 28 kDa protein", "T1 chain": "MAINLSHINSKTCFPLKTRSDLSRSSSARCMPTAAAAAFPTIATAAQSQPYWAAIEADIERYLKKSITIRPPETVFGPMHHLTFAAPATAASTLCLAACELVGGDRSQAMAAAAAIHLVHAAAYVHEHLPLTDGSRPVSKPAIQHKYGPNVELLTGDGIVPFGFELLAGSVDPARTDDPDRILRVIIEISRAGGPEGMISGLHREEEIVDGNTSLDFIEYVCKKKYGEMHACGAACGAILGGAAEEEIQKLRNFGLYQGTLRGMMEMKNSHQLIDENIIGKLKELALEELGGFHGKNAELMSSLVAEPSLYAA", "experiment": "co-expression in E. coli, anion-exchange chromatography, activity assay", "description": "The transformed bacteria were then induced with 1 mM IPTG and allowed to express for 24 h at 15° C. The bacteria were harvested by centrifugation, washed once with Tris buffer (pH 7.0) containing 50 mM KCl, and resuspended in 25 ml sonication buffer (25 mM Hepes, pH 7.2, 10 mM MgCl₂, 10% glycerol, 1 mM DTT, 1 mM EDTA and 1 mM benzamidine) and disrupted by brief sonication (VirSonic, 25% power, two 30 s bursts, 0-4° C.). The sonicate was centrifuged at 12,000 g (30 min), then at 195,000 g (90 min). The supernatant (soluble enzyme fraction) was loaded onto an HR 5/5 column containing Source 15Q anion-exchange separation medium (Pharmacia Biotech) that had been equilibrated with Hepes buffer (25 mM, pH 7.5) containing 10% glycerol, 10 mM MgCl₂, 1 mM DTT and 1 mM benzamidine. A step gradient of KCl (0-85 mM (10 ml); 85 mM (15 ml); 85-600 mM (20 ml)) was applied, and 2 ml fractions were collected and assayed for prenyltransferase activity using [¹⁴C]IPP and DMAPP (or GPP or FPP) as cosubstrates as described above. […]"}
{"binder": "B1", "values": [{"measurement": "binding result", "result": "binds"}]}
